Test: yeast display, Sf9 membrane polyspecificity reagent, FACS + sequencing; frameworks hold sequencing errors
In short: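 Nanobodies came from a synthetic yeast display library in Saccharomyces cerevisiae BJ5465, induced with galactose for 36–48 hours and stained for 1 hour at 4 °C with 10% biotinylated, detergent-solubilized Sf9 membrane reagent. Cells were enriched on streptavidin microbeads and then FACS-sorted, with low and high (top ~1%) gates set on anti-HA fluorescence for expression and streptavidin fluorescence for reagent binding. Each polyreactivity label reflects the gate a clone came from. Genes were amplified by colony PCR, sequenced by MiSeq 2 × 250 and filtered by CDR length.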

Sequence | polyreactivity (PSR sort gate)
QVQLVESGGGLVQAGGSLRLSCAASGRTFYYNTMGRNIPAPGKERELVATISRIGGSTYYADSVKGRFTISRDNAKNTVYLQMNSLKPEDTAVYYCAKGRSLNGRPPVVYWQLFYYWGQGTEVTVSS | high polyreactivity
QVQLVESGGGLVQAGGSLRLSCAASGFIFGYNAMGGYRLAPGKERELVAAISSYGGSPYYADSVKGRFTISRDNAKNTVYLQMNTLKPEDTAVYYWAARPVALRKYDYWGQGTQLTVSS | low polyreactivity
QVQLVESGGALVQARGSLRLSCAASGRTFVWYAMGWYRQAPGKERELVAAITLSGGSTYYADSVKGRFTISRDNAKNTVYLQMTSLKPEDTAVYYCAADGTYRPEDYDYWGQGTKVTVSS | low polyreactivity
QVQLVESGGGLVQAGGSLRLSCAASGSTFWPYAMGWYRQAPGKERELVAAITSSGGSTYYADSVKGRFTISRDNAKNTVYLQMNSLKPEETAVYYCAADWSNLGAYDYWGQGTQVTVSS | low polyreactivity
QVQLVESGGGLVQAGGSLRLSCAASGRIFGGYTMGWYRQAPGNERELVAAINSGGSTYYADSVKGRFTISRDNAKITVYLQMNSLKPEDTAVYYCAKVRSYFGKYGYGYWGQGTQVTVSS | high polyreactivity
QVQLEESGGGLVQAGGSLRLSCAASGSTNVKYAMGWYRQAPGKERELVAAITYSGDSTYYADSLKGRFTSSRDNAKNTVYLQINSLKPEDTAVYYWAAELVVRYMVSDYELEYWGQGTQVTVSS | low polyreactivity
QVQLVESGGGLVQAGGSLRLSCASSGRTFVSNAKGWYRQAPGKERELVAVITGIGGNTYYADSVKGRFTISRDNAKNSDYLQMNSLKPEDTAVYYCAADISLVSYYYWGQGTQVTVSS | low polyreactivity
QVQLVESGGGVVQAGGSLRLSCAASGSIFTYYAMGWYRQAPGKERELVAAISYGGGSTNYADSVKGRFTISRDNAKYTVYLQMNSLKPEDTAVYYCNRVLGVNYGYWGQGTQVTVSS | high polyreactivity
QVQLVESGGGLVQAGGSLRLSCAASGSIFVGYAMGWYRQAPGKERELVAAISWSGDSTYYADSVKGRFTISRDNAKNTVYLQMNSLKPEDTAVYYCAVDYAEIGPRREVEYDYWGQGTQVTVSS | low polyreactivity
QVQQQESGGGLVQAGGSLRLSCAASGTILYSLGMGWYRQAPGKRREFVASITWGTTTNYAESVKGRFTISRDNAKNTVYPQMNSLKPEDTAVYYCNKSSTGWTSTYDYWGQGTQVTVSS | low polyreactivity
QVQLVESGGGLVQAGGSLRLSCAASGSILAGYAMGWYRQAPGKERELVAAITSGGGSTYYADSVKGRFTISSDNAKITVYLQMNSLKAEDTAVYYCARDSGYYYDEYYYWGQGTKVTVSS | low polyreactivity
QVQLVESGGGLVQAGGSLRLSCAASGRIFSINAMGWYRQAPGKERELVAAITSRGTSTYYADSVKGRFTISRDNAKNTVYLQMNSMKPEDTAVYYCAKKYVGGPWPRYFWGQGTQVTVSS | high polyreactivity
QVQLEESGGGLVQAGGSLRLSCAASGRTFPLYVMGWYRQAPGKEREWVAAISARGGSTYYADSVKGRFTISRDNAKNTVYLQMNSLKPEDTAVYYCATLVTNGRYDSWGQGTQVTVSS | high polyreactivity
QVKLVESGGGLVQAGGSLRLSCAASGIIFSGNAMGWYRQAPGKERELVAAITRGGRTYYADSVKGRFTISRDNAKNTVYLQMNSLKPEDTAVYYCAADDPHRAREYDYWGQGTQVTVSS | high polyreactivity
QVQLVESGGGLVQAGGSLRLSCAASGRTLCVNAMGWYRQAPGKERELVAAISTRGTTTNYADSVKGRFTISRDIAKNTVYLQMNSLKPEDSAVYYCATRTYRTYPRYDYWGQGTQVTVSS | low polyreactivity
QVQLVESGGGLVQAGGSLRLSCAASGTIVGYAMGWYRQAPGKERELVASNSWRVGSTYYADSVKGRFTISRDNAKNTVYLQMISLKPEDTAVYYCNAASYVFLYYPGGIYRDDYWGQGTQVTVSS | low polyreactivity

Sequence | polyreactivity (PSR sort gate)
QVQLVESGGGLVQAGGSLRLSCAASGRTFTIYAMGWYRQAPGKERELVAAISSSSGSTYYADSVKGRFTISRDNAKNTVYLQMNSLKPEDTAVYYCAARTTYRSSKRYGYWGQGTQVTVSS | high polyreactivity
QVQLVESGGGLVQAGGSLRLSCAASGRIFTFYAMGWSRQAPGKERELVAVITTGTSTTYADSVKGRFTISRDNAKNTVYLQMNSLKPEDTAVYYCAVDSWSRVQGWLAHNYDYWGQGTQVTVSS | low polyreactivity
QVQLVESGGGLVQAGGSLRLSCAASGRIFVVNTMGWYRQAPGKERELVAAISFSGVSTYYADSVKGRFTISRDNAKNTVYLQMISLKPEDTAVYYCAAVPYRQYPGGGYWGQGTQVTVSS | low polyreactivity
QVQLVESGGGLVQAGGSLRLSCAASGNTFGGYAMGWYRQAPGKERELVATISYADSVKGRFTISRDNAKNTVYLQMNSLKPEDTAVYYCNKQFGYPWEYYSYSYDYWGQGTQVTVSS | low polyreactivity
QVQVVESGGGLVQAGGSLRLSCASSGRTFGIYAMGWYRPAPGKESEWVASISWSGGRTYYADSVKGRFTISRDNAKNTVYLVMISLKPEDTAVYFCAARWYYVTPLRRYGYWGQGTQVTVSS | high polyreactivity
QVQLVESGGGLVQAGGGLRLSCAASGSIFLINAMGWYRQAPGKERELVAAITSGSSTNYADSVKGRFTISRDNAKNTVYLQMNSLKPEDTAVYYCAASTPYSYRYDYWGQGTQVTVSS | low polyreactivity
QLQLVESGGGLVQAGCSLRLSFAASVIICWANAMGCYIHAPGKERELVASITSGGSTYYADSVKGRFTISRDNAKTTVYFQMNSLKPEDTAVYYCAADPYGWWDWHTLGTYDYWGQGTQVTVSS | low polyreactivity
QVQLVESGGGLVQAGGSLRLSCAASGRTFQLNAMGWYRQAPGKEREVVAAISTRGGSTYYADSVKGRFTISRDNAKNTVYLQMHRLKPEDTAVYYCAKDPSFTRGYKEGGGYDYWGQGTQVTVSS | high polyreactivity
QEQLQESGGGQVQAGGSLLLSCAASGNIIRYYYMGWYRQAPGKERELVAAITYGTSTNYADSVKGRFTISRDNATNTEFLQMNSLKPEDTAVYYCAVDVNYGDPIDNWGQGTQVTVSS | high polyreactivity
QVQLVESGAGLVQAGGSLRLSCAASGRNFWYYAMGLYRQAPGKERELVAGITYGDGSTYYADSVKGRFTISRDNAKNTVYLQMNSLKPEDTAVYYCAVDLRSYWFRYGFDYWGQGTQVTVSS | low polyreactivity
QVQLVESGGGLVQAGGSLRLSCAASGITFHVNAMGWYRQAPGKERELVARITTSGGSTSYADSVKGRFTISRDNAKNTVYLQMNSLKPEDTAVYYCAADLARYYSEYDYWGQGTQVTVSS | low polyreactivity
QGQLVESGGGLVQAGGSLRLSCAASGRTFTAYAMGWYRQAPRKERELVASISSGSSTYYADSVKGRFTISRDNAKYTVYLQMNSLKPEDTAVYYCAARDGYRYYKGKRMGYWGQGTQVTVSS | high polyreactivity
QVQLVESGGGLVQAGGSLRLSCAASGFTFSPYTMGWSRQAPGKERELVATIRYDGTSTYYADSVKGRFTISRDNAKNTVYLQMNSLKREDTAVYYCAAEIWRVYSTFYYWGQGTQVSVSS | low polyreactivity
QVQLVESGGGLVQAGGSLRLSCAASGLIFTYYAMGWYRQAPGKERELVAAISGRGGSTYYADSVKGRFTISRDNAKNTVYLQMNSLKPEDTAVYYCAAVRWAGYVSDYGYWGQGTQVTVSS | high polyreactivity
QVQLQESGRRPGAAGGSPRMSCAASGNIFWVAVMGRYRQAPGKERELVASIGFGCTTYYADSVKCRFTISRDNAKNTVYRQMISLKPEDTAVYYCAAPHYDWGELDYWGQGTQVPVSS | low polyreactivity
QVQIVESGGGLVQAGGSLRISCAASGLIYSSYGMGWYRQAPGKERELVAAISSGGSTYYADSVKGRFSISRDNAKNTVYLQKKSLKPEDTAVYYCADGVLYPYWYSTYYPDCQYYYWGHGTQVTVSS | low polyreactivity

— the nanobody polyreactivity screen of Harvey et al. (2022)
